# Assay results as given in patent publication US20260008817A1, “CYCLIC PEPTIDE OR SALT THEREOF, AND USES THEREOF” (FUJIFILM Corporation, priority 2023, published 2026).
# Positions of bridges follow the written chain, without caps; N, C: chain ends. Non-standard residues stand in square brackets, D forms with d. No end group written: not given here. COCH2 = acetyl group that carries the bridge; NMeL = CN[C@@H](CC(C)C)C(=O)O; hLeu = CC(C)CC[C@H](N)C(=O)O; hCys = N[C@@H](CCS)C(=O)O; Orn = NCCC[C@H](N)C(=O)O; Dab = NCC[C@H](N)C(=O)O; Dap = NC[C@H](N)C(=O)O
# Molecular target: T1, Recombinant Human FGFR1 alpha (IIIc) Fc Chimera Protein (Homo sapiens, UniProt P11362)
# T1 construct: purchased R&D systems 658-FR-050
# Assay: ELISA binding affinity of enzymatically synthesized peptide to FGFR
# Conditions: ELISA luminescence signal at 10 nmol/L peptide, SEQ ID NO: 239 standardized to 1; enzyme synthesis product
# Outline: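 Cell-free PUREfrex-translated cyclic peptides (Myc/HiBiT-tagged, quantified by HiBiT luminescence) bound 3 h at room temperature to immobilized FGFR1α(IIIc)-Fc, detected with anti-Myc and chemiluminescence. FGFR-specific signal at 10 nmol/L normalized to a reference cyclic peptide and graded A–D.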
# T1 sequence (P11362 with tags, fused parts or gaps limits assumed): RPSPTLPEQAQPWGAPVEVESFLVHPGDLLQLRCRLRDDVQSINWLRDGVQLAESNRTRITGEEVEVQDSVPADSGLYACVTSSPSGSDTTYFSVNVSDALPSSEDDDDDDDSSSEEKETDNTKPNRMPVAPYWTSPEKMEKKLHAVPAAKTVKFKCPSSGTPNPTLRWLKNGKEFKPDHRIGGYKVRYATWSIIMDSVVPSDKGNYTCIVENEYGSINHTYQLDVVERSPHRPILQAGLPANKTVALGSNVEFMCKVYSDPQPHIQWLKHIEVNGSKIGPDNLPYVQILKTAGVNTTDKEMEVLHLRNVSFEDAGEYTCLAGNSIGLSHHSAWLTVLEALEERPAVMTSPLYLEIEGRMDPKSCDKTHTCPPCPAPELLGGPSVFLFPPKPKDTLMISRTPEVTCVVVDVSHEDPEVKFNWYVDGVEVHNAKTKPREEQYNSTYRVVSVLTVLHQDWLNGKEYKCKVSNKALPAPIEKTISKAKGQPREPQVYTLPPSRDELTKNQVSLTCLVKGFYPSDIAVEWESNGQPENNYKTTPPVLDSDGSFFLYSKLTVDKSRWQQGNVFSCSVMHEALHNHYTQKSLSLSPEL
row,Evaluation result of binding affinity to FGFR,Molecule
1,A (0.7 or more),291 (ICVYTFDAHAHSLDDALTK(COCH2)I; thioether 2-19 (inferred)) [compound 291]
2,A (0.7 or more),"292 (ICVYTFDAHAHSLDAALNKI; not fully specified (residue 19, bridges)) [compound 292]"
3,A (0.7 or more),293 (ICVYTFDAHAHSLDAALTK(COCH2)V; thioether 2-19 (inferred)) [compound 293]
4,A (0.7 or more),294 (ICVYTFDAHAHSLDAALTK(COCH2)Q; thioether 2-19 (inferred)) [compound 294]
5,A (0.7 or more),"295 (ICVYTFDAHAHSLDAALNKV; not fully specified (residue 19, bridges)) [compound 295]"
6,A (0.7 or more),"296 (ICVYTFDAHAHSLDAALNKQ; not fully specified (residue 19, bridges)) [compound 296]"
7,A (0.7 or more),297 (ICVYTFDAHAHSLHDALNK(COCH2)I; thioether 2-19 (inferred)) [compound 297]
8,A (0.7 or more),298 (ICVYTFDAHAHSLHDALTK(COCH2)V; thioether 2-19 (inferred)) [compound 298]
9,A (0.7 or more),299 (ICVYTFDAHAHSLHDALTK(COCH2)Q; thioether 2-19 (inferred)) [compound 299]
10,A (0.7 or more),300 (ICVYTFDAHAHSLHDALNK(COCH2)V; thioether 2-19 (inferred)) [compound 300]
11,A (0.7 or more),301 (ICVYTFDAHAHSLHDALNK(COCH2)Q; thioether 2-19 (inferred)) [compound 301]
12,A (0.7 or more),302 (ICVYTFDAHAHSLDDALNK(COCH2)I; thioether 2-19 (inferred)) [compound 302]
13,A (0.7 or more),303 (ICVYTFDAHAHSLDDALTK(COCH2)V; thioether 2-19 (inferred)) [compound 303]
14,A (0.7 or more),304 (ICVYTFDAHAHSLDDALTK(COCH2)Q; thioether 2-19 (inferred)) [compound 304]
15,A (0.7 or more),305 (ICVYTFDAHAHSLDDALNK(COCH2)V; thioether 2-19 (inferred)) [compound 305]
16,A (0.7 or more),306 (ICVYTFDAHAHSLDDALNK(COCH2)Q; thioether 2-19 (inferred)) [compound 306]
17,A (0.7 or more),307 (FCVYTFDAHAHSLDAALTK(COCH2)I; thioether 2-19 (inferred)) [compound 307]
18,A (0.7 or more),308 (FCVYTFDAHAHSLHDALTK(COCH2)I; thioether 2-19 (inferred)) [compound 308]

row,Evaluation result of binding affinity to FGFR,Molecule
1,A (0.7 or more),309 (FCVYTFDAHAHSLDDALTK(COCH2)I; thioether 2-19 (inferred)) [compound 309]
2,A (0.7 or more),310 (ICVYTFDAHAQSLDAALTK(COCH2)I; thioether 2-19 (inferred)) [compound 310]
3,A (0.7 or more),311 (ICVYTFDAHAQSLHDALTK(COCH2)I; thioether 2-19 (inferred)) [compound 311]
4,A (0.7 or more),312 (ICVYTFDAHAQSLDDALTK(COCH2)I; thioether 2-19 (inferred)) [compound 312]
5,A (0.7 or more),313 (FCVYTFDAHAHSLDAALNK(COCH2)I; thioether 2-19 (inferred)) [compound 313]
6,A (0.7 or more),314 (FCVYTFDAHAHSLHDALNK(COCH2)I; thioether 2-19 (inferred)) [compound 314]
7,A (0.7 or more),315 (FCVYTFDAHAHSLDDALNK(COCH2)I; thioether 2-19 (inferred)) [compound 315]
8,A (0.7 or more),316 (FCVYTFDAHAHSLDAALTK(COCH2)Q; thioether 2-19 (inferred)) [compound 316]
9,A (0.7 or more),317 (FCVYTFDAHAHSLHDALTK(COCH2)Q; thioether 2-19 (inferred)) [compound 317]
10,A (0.7 or more),318 (FCVYTFDAHAHSLDDALTK(COCH2)Q; thioether 2-19 (inferred)) [compound 318]
11,A (0.7 or more),319 (FCVYTFDAHAHSLDAALNK(COCH2)Q; thioether 2-19 (inferred)) [compound 319]
12,A (0.7 or more),320 (FCVYTFDAHAHSLHDALNK(COCH2)Q; thioether 2-19 (inferred)) [compound 320]
13,A (0.7 or more),321 (FCVYTFDAHAHSLDDALNK(COCH2)Q; thioether 2-19 (inferred)) [compound 321]
14,A (0.7 or more),322 (CVYTFDAHAHSLDAALTK(COCH2)I; thioether 1-18 (inferred)) [compound 322]
15,A (0.7 or more),323 (ICVYTFDANAHSLDAALTK(COCH2)I; thioether 2-19 (inferred)) [compound 323]
16,A (0.7 or more),324 (ICVYTFDANAHSLHDALTK(COCH2)I; thioether 2-19 (inferred)) [compound 324]
17,A (0.7 or more),325 (ICVYTFDANAHSLDDALTK(COCH2)I; thioether 2-19 (inferred)) [compound 325]
18,B (0.5 or more and less than 0.7),326 (IK(COCH2)VYTFDAHAHSLDAALTCI; thioether 2-19 (inferred)) [compound 326]

# Molecular target: Recombinant Human FGFR1 alpha (IIIc) Fc Chimera Protein, CF (R&D systems, 658-FR-050) (human) (UniProt P11362)
# Assay: SPR grade, peptide 10 nmol/L over FGFR1-Fc
# Conditions: scale: moleculesofcyclicpeptide/onemoleculeoffgfr
# Sequence of Recombinant Human FGFR1 alpha (IIIc) Fc Chimera Protein, CF (R&D systems, 658-FR-050) (human) (P11362 22-376, change not shown): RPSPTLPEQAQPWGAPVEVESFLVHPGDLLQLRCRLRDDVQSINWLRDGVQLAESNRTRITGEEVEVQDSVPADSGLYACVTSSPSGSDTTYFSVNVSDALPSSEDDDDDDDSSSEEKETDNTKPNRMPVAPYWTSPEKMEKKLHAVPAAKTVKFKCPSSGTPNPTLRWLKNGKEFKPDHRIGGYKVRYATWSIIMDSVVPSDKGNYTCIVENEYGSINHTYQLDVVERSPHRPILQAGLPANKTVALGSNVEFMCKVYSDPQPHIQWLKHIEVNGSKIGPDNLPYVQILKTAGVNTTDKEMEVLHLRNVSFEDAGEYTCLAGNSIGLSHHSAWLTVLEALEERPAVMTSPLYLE
row,"binding amount (SPR, molecules of cyclic peptide bound per one molecule of FGFR at 10 nmol/L peptide)",Molecule
1,> 0.7,A[Dap](COCH2)VWTFDRHAQEISQALH[hCys]VKKK (thioether 2-19) [cyclic peptide SEQ ID NO: 334]
2,0.5 to 0.7,AK(COCH2)VWTFDRHAQEISQALH[hCys]VKKK (thioether 2-19) [cyclic peptide SEQ ID NO: 331]
3,0.1 to 0.5,F[Orn](COCH2)VYTFDAHAHS[NMeL]DAALN[hCys]IKKK (thioether 2-19) [cyclic peptide SEQ ID NO: 339]
4,0.1 to 0.5,FXVYTFDAHAHSLDAALNXIKKK ((Orn(propyl)) and (Hcy) homocysteine joined by a thioether ring) [cyclic peptide SEQ ID NO: 338]
5,< 0.1,ACVWTFDRHAQEISQALHCVKKK (disulfide 2-19) [cyclic peptide SEQ ID NO: 336]
6,> 0.7,A[hCys]VWTFDRHAQEISQALH[Orn](COCH2)VKKK (thioether 2-19) [cyclic peptide SEQ ID NO: 328]
7,0.1 to 0.5,F[Orn](COCH2)VYTFDAHAHSLDAALN[hCys]KKK (thioether 2-19) [cyclic peptide SEQ ID NO: 342]
8,0.1 to 0.5,[Orn](COCH2)VYTFDAHAHSLDAALN[hCys]IKKK (thioether 1-18) [cyclic peptide SEQ ID NO: 341]
9,> 0.7,A[Orn](COCH2)VWTFDRHAQEISQALH[hCys]VKKK (thioether 2-19) [cyclic peptide SEQ ID NO: 332]
10,0.5 to 0.7,A[hCys]VWTFDRHAQEISQALH[Dab](COCH2)VKKK (thioether 2-19) [cyclic peptide SEQ ID NO: 329]
11,> 0.7,A[hCys]VWTFDRHAQEISQALH[Dap](COCH2)VKKK (thioether 2-19) [cyclic peptide SEQ ID NO: 330]
12,> 0.7,A[Dab](COCH2)VWTFDRHAQEISQALH[hCys]VKKK (thioether 2-19) [cyclic peptide SEQ ID NO: 333]
13,0.1 to 0.5,F[Orn](COCH2)VYTFDAHAHSLDAALN[hCys]IKKK (thioether 2-19) [cyclic peptide SEQ ID NO: 337]
14,0.5 to 0.7,F[Orn](COCH2)VYTFDAHAHS[hLeu]DAALN[hCys]IKKK (thioether 2-19) [cyclic peptide SEQ ID NO: 340]
15,> 0.7,A[hCys]VWTFDRHAQEISQALHK(COCH2)VKKK (thioether 2-19) [cyclic peptide SEQ ID NO: 327]
